The values below come from publication PMC4121237, “Engineering Neprilysin Activity and Specificity to Create a Novel Therapeutic for Alzheimer’s Disease” (PLoS ONE, 2014).

The Km is the concentration of substrate that gives half-maximal velocity. What is called kcat is the number of substrate molecules converted per active site and unit of time at saturation.

Holding throughout (type): biochemical
One series has as its system Angiotensin. Kind of series: Steady-state kinetics of peptide cleavage, fluorescence polarisation. The following applies: substrate Angiotensin; for Km / kcat: 37°C, pH 7.4; for Fold change in kcat/KM: ratio of wild-type NEP kcat/KM to that of the mutant. As for the experimental part: (§1) For detailed kinetic characterisation of peptide cleavage by NEP, a similar assay to that above was used with modifications based on a published method. Peptides were synthesised by Bachem using 9-fluorenylmethyloxycarbonyl solid-phase peptide synthesis and were labelled with a N-terminal 5(6)FAM via a ε-aminocaproic acid linker and a C-terminal biotin via a lysine linker (Table S1). Purified peptides were supplied as trifluoroacetate salts with a purity ≥95%. The assay was performed in a 96-well microtitre plate and contained 50 mM HEPES (pH 7.4), 100 mM NaCl, 0.05% (w/v) BSA (Buffer A), 1–200 µM peptide substrate and 1–500 nM NEP protein. Reactions were incubated at 37°C before being stopped at various time points between 2 and 360 min by transferring 5 µL aliquots to 245 µL Buffer A containing 2 mM 1,10-phenanethroline (Sigma) and 2 µM avidin (Invitrogen). For peptide substrates containing disulphide bonds, 1 mM tris(2-carboxyethyl)phosphine (Thermo Scientific) was added to the stop solution. The fluorescence polarisation of the resulting solution was measured on a Victor plate reader and the amount of substrate cleaved was determined with reference to substrate-only controls with and without avidin. Initial rates were obtained by linear regression of the linear regions of time courses. Enzyme velocity was plotted as a function of substrate concentration and the Michaelis-Menten equation was used to fit the data, giving the parameters kcat and KM.

The next series concerns Aβ1–40. The description is as above. Conditions: for Km / kcat / Fold change in kcat/KM: substrate Aβ 1–40; for Km / kcat: 37°C, pH 7.4; for Fold change in kcat/KM: ratio of wild-type NEP kcat/KM to that of the mutant; for increase in kcat/KM (catalytic efficiency) on Aβ1–40 over wild-type NEP: substrate Aβ1–40, relative to wild-type NEP. The method, then: as §1
In a further series the test system is Bradykinin. The series is described as above. The following applies: substrate Bradykinin; for Km / kcat: 37°C, pH 7.4; for Fold change in kcat/KM: ratio of wild-type NEP kcat/KM to that of the mutant. The method, then:
as §1

The next series has as its system Glucagon. Described as above. The following applies: substrate Glucagon; for Km / kcat: 37°C, pH 7.4; for Fold change in kcat/KM: ratio of wild-type NEP kcat/KM to that of the mutant. As for the experimental part: as §1
In a further series the test system is Neurotensin. The description is as above. The following applies: substrate Neurotensin; for Km / kcat: 37°C, pH 7.4; for Fold change in kcat/KM: ratio of wild-type NEP kcat/KM to that of the mutant. The method, then: as §1
For series [1], the system named is Aβ1–40 or 1–42 and eight off-target peptides. Kind of series: High-throughput fluorescence polarisation screen of NEP variants. Conditions: high throughput screening, relative to wild-type. The method, then: To screen NEP variants for improved activity on and specificity towards Aβ a high-throughput assay was developed where cleavage activity on Aβ1–40 or 1–42 and eight off-target peptides (see Table S1) was determined by fluorescence polarisation. Peptide substrates were labelled with DY-505 or DY-647 at the N-terminus and biotin at the C-terminus. The biotin serves for increasing the molecular size of uncleaved peptides after addition of strepavidin, thereby increasing the assay window and measurable signals. Peptide cleavage assays were performed by incubating NEP variant samples in a microtitre plate containing assay solution composed of 60 nM peptide substrate in 50 mM HEPES (pH 7.4) containing 150 mM NaCl and 0.05% Pluronic F-68 (Sigma). […] The extent of peptide cleavage was determined by measuring the fluorescence polaristion of the stopped reactions on a plate reader (Tecan) with an appropriate set up of polarisation filters. […]
To rank these variants the change in activity on the Aβ1–40 peptide was divided by the average change in specificity on the other peptides and then by the specificity of the wild-type enzyme. […] At many other positions only a single amino acid substitution was detected as having improved specificity, and some of these provided the largest gains observed. […]

B1: NEP G714K: single mutant G714K of the human NEP ectodomain (protein, UniProt P08473 52-750, looked up, variant G714K)
extracellular domain: YDDGICKSSDCIKSAARLIQNMDATTEPCTDFFKYACGGWLKRNVIPETSSRYGNFDILRDELEVVLKDVLQEPKTEDIVAVQKAKALYRSCINESAIDSRGGEPLLKLLPDIYGWPVATENWEQKYGASWTAEKAIAQLNSKYGKKVLINLFVGTDDKNSVNHVIHIDQPRLGLPSRDYYECTGIYKEACTAYVDFMISVARLIRQEERLPIDENQLALEMNKVMELEKEIANATAKPEDRNDPMLLYNKMTLAQIQNNFSLEINGKPFSWLNFTNEIMSTVNISITNEEDVVVYAPEYLTKLKPILTKYSARDLQNLMSWRFIMDLVSSLSRTYKESRNAFRKALYGTTSETATWRRCANYVNGNMENAVGRLYVEAAFAGESKHVVEDLIAQIREVFIQTLDDLTWMDAETKKRAEEKALAIKERIGYPDDIVSNDNKLNNEYLELNYKEDEYFENIIQNLKFSQSKQLKKLREKVDKDEWISGAAVVNAFYSSGRNQIVFPAGILQPPFFSAQQSNSLNYGGIGMVIGHEITHGFDDNGRNFNKDGDLVDWWTQQSASNFKEQSQCMVYQYGNFSWDLAGGQHLNGINTLGENIADNGGLGQAYRAYQNYIKKNGEEKLLPGLDLNHKQLFFLNFAQVWCGTYRPEYAVNSIKTDVHSPKNFRIIGTLQNSAEFSEAFHCRKNSYMNPEKKCRVW
modifications: extracellular domain
notes: single mutant G714K of the human NEP ectodomain
B1: the Km with Angiotensin came to 18 ± 1 µM; in the series with Aβ1–40 it was 42 ± 0.7 µM; in the series with Bradykinin it was 120 ± 8 µM; with Glucagon, 42 ± 5 µM; in the series on Neurotensin, 10 ± 0.7 µM. The kcat amounted to 12 ± 0.3 s⁻¹ with Angiotensin; 1.9 ± 0.2 s⁻¹ in the series on Aβ1–40; 7.4 ± 0.3 s⁻¹ in the series on Bradykinin; 5.2 ± 0.3 s⁻¹ with Glucagon; 8.6 ± 0.2 s⁻¹ in the series with Neurotensin. For the same molecule, the “Fold change in kcat/KM” value with Angiotensin was 1.5; with Aβ1–40, 0.18; in the series on Bradykinin it was 7.5; in the series on Glucagon it was 1.5; in the series on Neurotensin, 0.98. Besides, the “increase in kcat/KM (catalytic efficiency) on Aβ1–40 over wild-type NEP” value in the series on Aβ1–40 was roughly 6 fold. The improvement in specificity entry in series [1] (activity on Aβ1–40 relative to other peptides) is reported as “approximately 12 fold”. Further, in series [1], the “improvement in activity on Aβ” value is roughly 7 fold.

B2: NEP G399V: single mutant G399V of the human NEP ectodomain (protein, UniProt P08473 52-750, looked up, variant G399V)
extracellular domain: YDDGICKSSDCIKSAARLIQNMDATTEPCTDFFKYACGGWLKRNVIPETSSRYGNFDILRDELEVVLKDVLQEPKTEDIVAVQKAKALYRSCINESAIDSRGGEPLLKLLPDIYGWPVATENWEQKYGASWTAEKAIAQLNSKYGKKVLINLFVGTDDKNSVNHVIHIDQPRLGLPSRDYYECTGIYKEACTAYVDFMISVARLIRQEERLPIDENQLALEMNKVMELEKEIANATAKPEDRNDPMLLYNKMTLAQIQNNFSLEINGKPFSWLNFTNEIMSTVNISITNEEDVVVYAPEYLTKLKPILTKYSARDLQNLMSWRFIMDLVSSLSRTYKESRNAFRKALYVTTSETATWRRCANYVNGNMENAVGRLYVEAAFAGESKHVVEDLIAQIREVFIQTLDDLTWMDAETKKRAEEKALAIKERIGYPDDIVSNDNKLNNEYLELNYKEDEYFENIIQNLKFSQSKQLKKLREKVDKDEWISGAAVVNAFYSSGRNQIVFPAGILQPPFFSAQQSNSLNYGGIGMVIGHEITHGFDDNGRNFNKDGDLVDWWTQQSASNFKEQSQCMVYQYGNFSWDLAGGQHLNGINTLGENIADNGGLGQAYRAYQNYIKKNGEEKLLPGLDLNHKQLFFLNFAQVWCGTYRPEYAVNSIKTDVHSPGNFRIIGTLQNSAEFSEAFHCRKNSYMNPEKKCRVW
modifications: extracellular domain
notes: single mutant G399V of the human NEP ectodomain
Turning to B2, the Michaelis constant (Km) was found to be 3.6 ± 0.4 µM with Angiotensin; 55 ± 7 µM in the series on Aβ1–40; 79 ± 10 µM in the series on Bradykinin; 20 ± 2 µM in the series on Glucagon; 12 ± 1 µM with Neurotensin. The kcat with Angiotensin worked out at 0.73 ± 0.03 s⁻¹; in the series with Aβ1–40 it was 2.7 ± 0.2 s⁻¹; in the series with Bradykinin it was 0.15 ± 0.01 s⁻¹; with Glucagon it was 2.9 ± 0.1 s⁻¹; with Neurotensin, 1.1 ± 0.04 s⁻¹. The “Fold change in kcat/KM” value in the series on Angiotensin is 4.6; in the series with Aβ1–40, 0.16; with Bradykinin it was 250; in the series on Glucagon, 1.2; in the series with Neurotensin it was 8.2. Also, the “increase in kcat/KM (catalytic efficiency) on Aβ1–40 over wild-type NEP” value with Aβ1–40 is reported as roughly 6 fold.
